From US20140302035A1 (MERRIMACK PHARMACEUTICALS, published 2014)
Numbering of substitutions follows the chain as printed.

B1: Ab#3 (bispecific antibody, human IgG1, kappa)
heavy: QLQLQESGPGLVKPSETLSLTCTVSGGSISSSVYYWSWIRQPPGKGLEWIGVIYPSGNTYYSPSLKSRVTISVDTSKNQFSLKLSSVTAADTAVYYCARTIYDLFDIWGQGTMVTVSSASTKGPSVFPLAPSSKSTSGGTAALGCLVKDYFPEPVTVSWNSGALTSGVHTFPAVLQSSGLYSLSSVVTVPSSSLGTQTYICNVNHKPSNTKVDKKVEPKSCDKTHTCPSCPAPEFLGGPSVFLFPPKPKDTLMISRTPEVTCVVVDVSQEDPEVQFNWYVDGVEVHNAKTKPREEQFNSKYRVVSVLTVLHQDWLNGKEYKCKVSNKGLPSSIEKTISKAKGQPREPQVYTLPPSREEMTKNQVSLSCAVKGFYPSDIAVEWESNGQPENNYKTTPPVLDSDGSFFLVSKLTVDKSRWQQGNVFSCSVMHEALHNHYTQKSLSLSKSCDKTGGGGSGGGGSGGGGSGGGGSGGGGSGGGGSGGGGSGGGGSCPSCPAPEFLGGPSVFLFPPKPKDTLMISRTPEVTCVVVDVSQEDPEVQFNWYVDGVEVHNAKTKPREEQFNSDYRVVSVLTVLHQDWLNGKEYKCKVSNKGLPSSIEKTISKAKGQPREPQVYTLPPSREEMTKNQVSLWCLVKGFYPSDIAVEWESNGQPENNYKTTPPVLDSDGSFFLYSKLTVDKSRWQQGNVFSCSVMHEALHNHYTQKSLSLSGECGGGGSGGGGSQVQLVQSGSELKKPGESVKVSCKASGYTFTNYGMNWVRQAPGQGLKWMGWINTYTGESTYADDFKGRFAFSLDTSASTAYLQISSLKAEDTAVYFCARFAIKGDYWGQGTLVTVSSASTGGGGSGGGGSGGGGSGGGGSDIVMTQSPLSLPVTPGEPASISCRSTKSLLHSDGITYLYWYLQKPGQSPQLLIYQLSNLASGVPDRFSSSGSGTDFTLKISRVEAEDEGVYYCAQNLEIPRTFGQGTKVEIK
light: DIQMTQSPSSVSASVGDRVTITCRASQGISSWLAWYQQKPGKAPKLLIYAASSLQSGVPSRFSGSGSGTDFTLTISSLQPEDFATYYCLQANSFPPTFGGGTKVEIKRTVAAPSVFIFPPSDEQLKSGTASVVCLLNNFYPREAKVQWKVDNALQSGNSQESVTEQDSKDSTYSLSSTLTLSKADYEKHKVYACEVTHQGLSSPVTKSFNRGEC
notes: Anti-c-Met Fab / tandem Fc / anti-EpCAM scFv TFcBA; also called Antibody #3
B2: Ab#4 (bispecific antibody, human IgG1, kappa)
heavy: QLQLQESGPGLVKPSETLSLTCTVSGGSISSSVYYWSWIRQPPGKGLEWIGVIYPSGNTYYSPSLKSRVTISVDTSKNQFSLKLSSVTAADTAVYYCARTIYDLFDIWGQGTMVTVSSASTKGPSVFPLAPSSKSTSGGTAALGCLVKDYFPEPVTVSWNSGALTSGVHTFPAVLQSSGLYSLSSVVTVPSSSLGTQTYICNVNHKPSNTKVDKKVEPKSCDKTHTCPSCPAPEFLGGPSVFLFPPKPKDTLMISRTPEVTCVVVDVSQEDPEVQFNWYVDGVEVHNAKTKPREEQFNSKYRVVSVLTVLHQDWLNGKEYKCKVSNKGLPSSIEKTISKAKGQPREPQVYTLPPSREEMTKNQVSLSCAVKGFYPSDIAVEWESNGQPENNYKTTPPVLDSDGSFFLVSKLTVDKSRWQQGNVFSCSVMHEALHNHYTQKSLSLSKSCDKTGGGGSGGGGSGGGGSGGGGSGGGGSGGGGSGGGGSGGGGSCPSCPAPEFLGGPSVFLFPPKPKDTLMISRTPEVTCVVVDVSQEDPEVQFNWYVDGVEVHNAKTKPREEQFNSDYRVVSVLTVLHQDWLNGKEYKCKVSNKGLPSSIEKTISKAKGQPREPQVYTLPPSREEMTKNQVSLWCLVKGFYPSDIAVEWESNGQPENNYKTTPPVLDSDGSFFLYSKLTVDKSRWQQGNVFSCSVMHEALHNHYTQKSLSLSGECGGGGSGGGGSDIVMTQSPLSLPVTPGEPASISCRSTKSLLHSDGITYLYWYLQKPGQSPQLLIYQLSNLASGVPDRFSSSGSGTDFTLKISRVEAEDEGVYYCAQNLEIPRTFGQGTKVEIKRTGGGGSGGGGSGGGGSGGGGSGQVQLVQSGSELKKPGESVKVSCKASGYTFTNYGMNWVRQAPGQGLKWMGWINTYTGESTYADDFKGRFAFSLDTSASTAYLQISSLKAEDTAVYFCARFAIKGDYWGQGTLVTVSS
light: B1 light
notes: Anti-c-Met Fab / tandem Fc / anti-EpCAM scFv TFcBA; also called Antibody #4
B3: Ab#8 (bispecific antibody, human IgG1, kappa)
heavy: QLQLQESGPGLVKPSETLSLTCTVSGGSISSSVYYWSWIRQPPGKGLEWIGVIYPSGNTYYSPSLKSRVTISVDTSKNQFSLKLSSVTAADTAVYYCARTIYDLFDIWGQGTMVTVSSASTKGPSVFPLAPSSKSTSGGTAALGCLVKDYFPEPVTVSWNSGALTSGVHTFPAVLQSSGLYSLSSVVTVPSSSLGTQTYICNVNHKPSNTKVDKKVEPKSCDKTHTCPSCPAPEFLGGPSVFLFPPKPKDTLMISRTPEVTCVVVDVSQEDPEVQFNWYVDGVEVHNAKTKPREEQFNSKYRVVSVLTVLHQDWLNGKEYKCKVSNKGLPSSIEKTISKAKGQPREPQVYTLPPSREEMTKNQVSLSCAVKGFYPSDIAVEWESNGQPENNYKTTPPVLDSDGSFFLVSKLTVDKSRWQQGNVFSCSVMHEALHNHYTQKSLSLSKSCDKTGGGGSGGGGSGGGGSGGGGSGGGGSGGGGSGGGGSGGGGSCPSCPAPEFLGGPSVFLFPPKPKDTLMISRTPEVTCVVVDVSQEDPEVQFNWYVDGVEVHNAKTKPREEQFNSDYRVVSVLTVLHQDWLNGKEYKCKVSNKGLPSSIEKTISKAKGQPREPQVYTLPPSREEMTKNQVSLWCLVKGFYPSDIAVEWESNGQPENNYKTTPPVLDSDGSFFLYSKLTVDKSRWQQGNVFSCSVMHEALHNHYTQKSLSLSGECGGGGSGGGGSQVQLVQSGAEVKKPGESVKISCKASGYTFTNYGMNWVRQAPGQGLKWMGWINTYTGESTYADDFKGRFAFSLDTSASTAYLQLSSLRSEDTAVYFCARFAIKGDYWGQGTLVTVSSASTGGGGSGGGGSGGGGSGGGGSDIVMTQSPLSLPVTPGEPASISCRSTKSLLHSDGITYLYWYLQKPGQSPQLLIYQMSNLASGVPDRFSSSGSGTDFTLKISRVEAEDEGVYYCAQNLEIPRTFGGGTKLEIKRT
light: B1 light
notes: Anti-c-Met Fab / tandem Fc / anti-EpCAM scFv TFcBA; also called Antibody #8
B4: Ab#6 (bispecific antibody, human IgG1, kappa)
heavy: QLQLQESGPGLVKPSETLSLTCTVSGGSISSSVYYWSWIRQPPGKGLEWIGVIYPSGNTYYSPSLKSRVTISVDTSKNQFSLKLSSVTAADTAVYYCARTIYDLFDIWGQGTMVTVSSASTKGPSVFPLAPSSKSTSGGTAALGCLVKDYFPEPVTVSWNSGALTSGVHTFPAVLQSSGLYSLSSVVTVPSSSLGTQTYICNVNHKPSNTKVDKKVEPKSCDKTHTCPSCPAPEFLGGPSVFLFPPKPKDTLMISRTPEVTCVVVDVSQEDPEVQFNWYVDGVEVHNAKTKPREEQFNSKYRVVSVLTVLHQDWLNGKEYKCKVSNKGLPSSIEKTISKAKGQPREPQVYTLPPSREEMTKNQVSLSCAVKGFYPSDIAVEWESNGQPENNYKTTPPVLDSDGSFFLVSKLTVDKSRWQQGNVFSCSVMHEALHNHYTQKSLSLSKSCDKTGGGGSGGGGSGGGGSGGGGSGGGGSGGGGSGGGGSGGGGSCPSCPAPEFLGGPSVFLFPPKPKDTLMISRTPEVTCVVVDVSQEDPEVQFNWYVDGVEVHNAKTKPREEQFNSDYRVVSVLTVLHQDWLNGKEYKCKVSNKGLPSSIEKTISKAKGQPREPQVYTLPPSREEMTKNQVSLWCLVKGFYPSDIAVEWESNGQPENNYKTTPPVLDSDGSFFLYSKLTVDKSRWQQGNVFSCSVMHEALHNHYTQKSLSLSGECGGGGSGGGGSDIVMTQSPLSLPVTPGEPASISCRSTKSLLHSDGITYLYWYLQKPGQSPQLLIYQLSNLASGVPDRFSSSGSGTDFTLKISRVEAEDEGVYYCAQNLEIPRTFGGGTKLEIKRTGGGGSGGGGSGGGGSGGGGSQVQLVQSGAEVKKPGESVKISCKASGYTFTNYGMNWVRQAPGQGLKWMGWINTYTGESTYADDFKGRFAFSLDTSASTAYLQLSSLRSEDTAVYFCARFAIKGDYWGQGTLVTVSS
light: B1 light
notes: Anti-c-Met Fab / tandem Fc / anti-EpCAM scFv TFcBA; also called Antibody #6
B5: Ab#9 (bispecific antibody, human IgG1, kappa)
heavy: QLQLQESGPGLVKPSETLSLTCTVSGGSISSSVYYWSWIRQPPGKGLEWIGVIYPSGNTYYSPSLKSRVTISVDTSKNQFSLKLSSVTAADTAVYYCARTIYDLFDIWGQGTMVTVSSASTKGPSVFPLAPSSKSTSGGTAALGCLVKDYFPEPVTVSWNSGALTSGVHTFPAVLQSSGLYSLSSVVTVPSSSLGTQTYICNVNHKPSNTKVDKKVEPKSCDKTHTCPSCPAPEFLGGPSVFLFPPKPKDTLMISRTPEVTCVVVDVSQEDPEVQFNWYVDGVEVHNAKTKPREEQFNSKYRVVSVLTVLHQDWLNGKEYKCKVSNKGLPSSIEKTISKAKGQPREPQVYTLPPSREEMTKNQVSLSCAVKGFYPSDIAVEWESNGQPENNYKTTPPVLDSDGSFFLVSKLTVDKSRWQQGNVFSCSVMHEALHNHYTQKSLSLSKSCDKTGGGGSGGGGSGGGGSGGGGSGGGGSGGGGSGGGGSGGGGSCPSCPAPEFLGGPSVFLFPPKPKDTLMISRTPEVTCVVVDVSQEDPEVQFNWYVDGVEVHNAKTKPREEQFNSDYRVVSVLTVLHQDWLNGKEYKCKVSNKGLPSSIEKTISKAKGQPREPQVYTLPPSREEMTKNQVSLWCLVKGFYPSDIAVEWESNGQPENNYKTTPPVLDSDGSFFLYSKLTVDKSRWQQGNVFSCSVMHEALHNHYTQKSLSLSGECGGGGSGGGGSQVQLQQSGGGLVKPGESVKISCAASGYTFTNYGMNWVKQAPGKGLKWMGWINTYTGESTYADDFKGRFTFSLETSASAAYLQINSLRPEDTAVYFCARFAIKGDYWGQGTTVTVSSASTGGGGSGGGGSGGGGSGGGGSGDIVMTQSPSSLSASVGDKATITCRSTKSLLHSNGITYLYWYLQKPGKAPKLLIYQMSNLASGVPDRFSSSGSGTEFTLTISSVQPEDEGTYYCAQNLEIPRTFGQGTKLEIK
light: B1 light
notes: Anti-c-Met Fab / tandem Fc / anti-EpCAM scFv TFcBA; also called Antibody #9
B6: Ab#10 (bispecific antibody, human IgG1, kappa)
heavy: B5 heavy with N896D, M919L
light: B1 light
notes: Anti-c-Met Fab / tandem Fc / anti-EpCAM scFv TFcBA; also called Antibody #10

Target: T1, Human EpCAM-Fc-his tagged (human)
T1 construct: also called Recombinant polyhistidine-tagged EpCAM-Fc; recombinant EpCAM
Test: BLI (ForteBio Octet), antibody loaded on Protein A tips, recombinant polyhistidine-tagged EpCAM-Fc in solution, 1:1 model
Method: For Octet analysis, all reagents and samples are brought to room temperature. Protein A sensor tips (ForteBio, #18-5010) are hydrated for 10 minutes in 1×PBS. Assay steps include: 1-2 minutes of equilibration in 1×PBS, 4 minutes of antibody loading (concentration of 50 μg/ml in 1×PBS), 1-2 minutes of baseline stabilization, 4 minutes of antibody:antigen association, and 4 minutes of antibody:antigen dissociation. 1×PBS is used as the matrix throughout. Data are analyzed with Octet Data Analysis software, processed, and fit to a 1:1 binding model to determine kinetic parameters (Kd, kₒₙ and kdiss).
Table A-2 describes approximate EpCAM binding affinity and dissociation rate as determined for Ab#1, Ab#2, Ab#3, Ab#4, Ab#5, Ab#6, Ab#7, Ab#8, Ab#9, Ab#10, Ab#11, Ab#12, and Ab#13.

T1 sequence (chain, as listed by the source): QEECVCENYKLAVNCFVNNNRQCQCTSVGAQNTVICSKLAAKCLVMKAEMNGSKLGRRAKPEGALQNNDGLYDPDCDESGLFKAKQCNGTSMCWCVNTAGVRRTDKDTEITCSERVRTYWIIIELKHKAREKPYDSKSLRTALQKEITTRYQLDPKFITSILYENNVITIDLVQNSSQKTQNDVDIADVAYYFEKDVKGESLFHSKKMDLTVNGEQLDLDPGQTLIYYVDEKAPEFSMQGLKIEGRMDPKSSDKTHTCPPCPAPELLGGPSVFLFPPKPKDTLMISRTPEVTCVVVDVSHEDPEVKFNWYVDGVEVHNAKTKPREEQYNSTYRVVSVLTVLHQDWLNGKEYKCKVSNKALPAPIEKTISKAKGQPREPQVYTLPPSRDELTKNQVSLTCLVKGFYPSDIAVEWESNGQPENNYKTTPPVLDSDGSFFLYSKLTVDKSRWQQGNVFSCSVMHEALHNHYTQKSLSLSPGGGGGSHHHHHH

Row | Kd [nM] | koff [s⁻¹] | Binder
1 | 17 | 0.00174 | B1
2 | 19.4 | 0.00174 | B2
3 | 16.7 | 0.00098 | B3
4 | 11.2 | 0.00122 | B4
5 | 10 | 0.00043 | B5
6 | 26.2 | 0.00211 | B6
